The target in experiment [1] is T1, GPR87(N)-GST (인간 GPR87 N-말단 세포외부위 영역과 GST 융합 항원) (human).
T1 construct: also called GPR87-GST
Description: ELISA, antigen coated, IgG titrated; apparent equilibrium dissociation constant.

For experiment [2], the target named is T2, GPR87(N)-Streptavidin (인간 GPR87 N-말단 세포외부위 영역과 STV 융합 항원) (human).
T2 construct: Purified on Ni-NTA, so a His tag is implied but not described; also called GPR87-STV
T2 chain: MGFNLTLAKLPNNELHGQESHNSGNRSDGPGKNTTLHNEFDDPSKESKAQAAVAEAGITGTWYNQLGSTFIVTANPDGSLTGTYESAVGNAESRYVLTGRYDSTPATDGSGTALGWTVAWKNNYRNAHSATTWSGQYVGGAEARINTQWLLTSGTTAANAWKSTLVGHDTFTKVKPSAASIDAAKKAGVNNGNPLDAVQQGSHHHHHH
The description is as above.

Experiment [3] has as its target T1, GPR87(N)-GST (인간 GPR87 N-말단 세포외부위 영역과 …). Description: single-clone phage ELISA after 4 rounds of biopanning.
Experiment [4] deals with T2, GPR87(N)-Streptavidin (인간 GPR87 N-말단 …). The description is as above.

Here are results for 4 molecules from patent KR20220116962A (dated 2022).

B1: 단일클론항체 A5 (IgG) (antibody, V domains shown)
VH: QVQLVQSGPGLVKPSETLSLTCSVSGGSMTSYYWSWVRQPPGKGLEWMGYVFHSGITNYSPSLKSRVTMSVDTSKNQFSLKLKSVTAVDTAVYYCAKKSGTSKKPIDYWGQGTTVTVSS
VL: DIVMTQSPSSLSASVGDRITITCRASQSVGTYVNWYQHKPGKAPKLLIYDASNLETGVPSRFSGSGSVTDFTLTITNLQPEDSATYYCLQHKNYPLTFGGGTKVEIKR
notes: also called A5 항체
Regarding B1, the Kd turned out to be 13.3 nM in experiment [1] and 14.7 nM in experiment [2].

B2: 단일클론항체 B1 (IgG) (antibody, V domains shown)
VH: EVQLVESGGGLVQPGRSLRLSCKASGFNFDEYALSWVRQAPGKGLEWVGFIRSKAYRETTEYAASVKGRCTISRDDSKSIAYLLMNSLRAEDTAVYYCARGHTPQRPYFDEWGQGTLVTVSS
VL: DIQMTQSPSFLSASVGDRITITCRASQSVGTYVNWYQQKLGKAPKLLIYTASTLQSGVPARFSGSGSGTEFTLTINGLQPEDFATYYCQQSYRPHFLTFGGGTQLTVLG
notes: also called B1 항체
Take B2: the values for the Kd in experiment [1] and in experiment [2] were 18.1 nM and 19.9 nM, respectively.

B3: B1 (scFv), phage-displayed clone (scFv)
scFv: EVQLVESGGGLVQPGRSLRLSCKASGFNFDEYALSWVRQAPGKGLEWVGFIRSKAYRETTEYAASVKGRCTISRDDSKSIAYLLMNSLRAEDTAVYYCARGHTPQRPYFDEWGQGTLVTVSSGGGSSGGGGSGGGGSGGGGSDIQMTQSPSFLSASVGDRITITCRASQSVGTYVNWYQQKLGKAPKLLIYTASTLQSGVPARFSGSGSGTEFTLTINGLQPEDFATYYCQQSYRPHFLTFGGGTQLTVLG
Consider B3, for which the binding result in experiment [3] and in experiment [4] was “binds” in each case.

B4: A5 (scFv), phage-displayed clone (scFv)
scFv: QVQLVQSGPGLVKPSETLSLTCSVSGGSMTSYYWSWVRQPPGKGLEWMGYVFHSGITNYSPSLKSRVTMSVDTSKNQFSLKLKSVTAVDTAVYYCAKKSGTSKKPIDYWGQGTTVTVSSGGGSSGGGGSGGGGSGGGGSDIVMTQSPSSLSASVGDRITITCRASQSVGTYVNWYQHKPGKAPKLLIYDASNLETGVPSRFSGSGSVTDFTLTITNLQPEDSATYYCLQHKNYPLTFGGGTKVEIKR
As to B4, the binding result in experiment [3] and in experiment [4] was “binds” in each case.
